Assay results from publication PMC5325763 (Cell, 2017).

Biological target: T1, FLAG-tagged FAAP20 (human, UniProt Q6NZ36 1-180)
T1 sequence (looked up): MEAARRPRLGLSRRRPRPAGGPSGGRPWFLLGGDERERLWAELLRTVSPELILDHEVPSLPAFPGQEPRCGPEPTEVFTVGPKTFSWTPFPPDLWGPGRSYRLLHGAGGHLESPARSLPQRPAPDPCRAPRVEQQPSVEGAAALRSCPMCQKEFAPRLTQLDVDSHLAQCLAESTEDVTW
Assay: LUMIER

B1: Renilla luciferase-tagged FANCA R880Q (natural protein, human, UniProt O15360-1 1-1455, looked up)
chain: MSDSWVPNSASGQDPGGRRRAWAELLAGRVKREKYNPERAQKLKESAVRLLRSHQDLNALLLEVEGPLCKKLSLSKVIDCDSSEAYANHSSSFIGSALQDQASRLGVPVGILSAGMVASSVGQICTAPAETSHPVLLTVEQRKKLSSLLEFAQYLLAHSMFSRLSFCQELWKIQSSLLLEAVWHLHVQGIVSLQELLESHPDMHAVGSWLFRNLCCLCEQMEASCQHADVARAMLSDFVQMFVLRGFQKNSDLRRTVEPEKMPQVTVDVLQRMLIFALDALAAGVQEESSTHKIVRCWFGVFSGHTLGSVISTDPLKRFFSHTLTQILTHSPVLKASDAVQMQREWSFARTHPLLTSLYRRLFVMLSAEELVGHLQEVLETQEVHWQRVLSFVSALVVCFPEAQQLLEDWVARLMAQAFESCQLDSMVTAFLVVRQAALEGPSAFLSYADWFKASFGSTRGYHGCSKKALVFLFTFLSELVPFESPRYLQVHILHPPLVPGKYRSLLTDYISLAKTRLADLKVSIENMGLYEDLSSAGDITEPHSQALQDVEKAIMVFEHTGNIPVTVMEASIFRRPYYVSHFLPALLTPRVLPKVPDSRVAFIESLKRADKIPPSLYSTYCQACSAAEEKPEDAALGVRAEPNSAEEPLGQLTAALGELRASMTDPSQRDVISAQVAVISERLRAVLGHNEDDSSVEISKIQLSINTPRLEPREHMAVDLLLTSFCQNLMAASSVAPPERQGPWAALFVRTMCGRVLPAVLTRLCQLLRHQGPSLSAPHVLGLAALAVHLGESRSALPEVDVGPPAPGAGLPVPALFDSLLTCRTRDSLFFCLKFCTAAISYSLCKFSSQSRDTLCSCLSPGLIKKFQFLMFRLFSEAQQPLSEEDVASLSWRPLHLPSADWQRAALSLWTHRTFREVLKEEDVHLTYQDWLHLELEIQPEADALSDTERQDFHQWAIHEHFLPESSASGGCDGDLQAACTILVNALMDFHQSSRSYDHSENSDLVFGGRTGNEDIISRLQEMVADLELQQDLIVPLGHTPSQEHFLFEIFRRRLQALTSGWSVAASLQRQRELLMYKRILLRLPSSVLCGSSFQAEQPITARCEQFFHLVNSEMRNFCSHGGALTQDITAHFFRGLLNACLRSRDPSLMVDFILAKCQTKCPLILTSALVWWPSLEPVLLCRWRRHCQSPLPRELQKLQEGRQFASDFLSPEAASPAPNPDWLSAAALHFAIQQVREENIRKQLKKLDCEREELLVFLFFFSLMGLLSSHLTSNSTTDLPKAFHVCAAILECLEKRKISWLALFQLTESDLRLGRLLLRVAPDQHTRLLPFAFYSLLSYFHEDAAIREEAFLHVAVDMYLKLVQLFVAGDTSTVSPPAGRSLELKGQGNPVELITKARLFLLQLIPRCPKKSFSHVAELLADRGDCDPEVSAALQSRQQAAPDADLSQEPHLF
  fold weaker binding than wild-type FANCA: ~8 fold
